Tests used:
amyloid-beta = experiment: Competition of a RAGE ligand with immobilized amyloid-beta for binding to the fusion protein; conditions: RAGE ligand FAC 10 μM
Protocol: The fusion protein of the present invention may also be used to identify compounds having the ability to bind to RAGE.
Known RAGE ligands were coated onto the surface of Maxisorb plates at a concentration of 5 micrograms per well. Plates were incubated at 4° C. overnight. Following ligand incubation, plates were aspirated and a blocking buffer of 1% BSA in 50 mM imidizole buffer (pH 7.2) was added to the plates for 1 hour at room temperature. The plates were then aspirated and/or washed with wash buffer (20 mM Imidizole, 150 mM NaCl, 0.05% Tween-20, 5 mM CaCl2 and 5 mM MgCl2, pH 7.2). […] The fusion protein was added at increasing dilutions of the initial sample. The RAGE fusion protein was allowed to incubate with the immobilized ligand at 37° C. for one hour after which the plate was washed and assayed for binding of the fusion protein. Binding was detected by the addition of an immunodetection complex containing a monoclonal mouse anti-human IgG1 diluted 1:11,000 to a final assay concentration (FAC) of 21 ng/100 μL, a biotinylated goat anti-mouse IgG diluted 1:500, to a FAC of […], and an avidin-linked alkaline phosphatase. […] Binding of the complex to the immobilized fusion protein was quantified by measuring conversion of PNPP to para-nitrophenol (PNP) which was measured spectrophotometrically at 405 nm. […]

[1] = tested on: S100b/RAGE-induced production of TNF-α in THP-1 cells; experiment: Inhibition of S100b/RAGE-induced production of TNF-α in THP-1 cells; type: cell-based; conditions: 10 μg protein, S100b 0.1 mg/ml, 24 hours
Protocol: THP-1 myeloid cells may be cultured in RPMI-1640 media supplemented with 10% FBS and induced to secrete TNF-α via stimulation of RAGE with S100b. When such stimulation occurs in the presence of a RAGE fusion protein, induction of TNF-α by S100b binding to RAGE may be inhibited.
Previous work has shown that the myeloid THP-1 cells may secrete TNF-α in response to RAGE ligands. In this assay, THP-1 cells were cultured in RPMI-1640 media supplemented with 10% FBS using a protocol provided by ATCC. […] The amount of TNF-α secreted by the THP-1 cells was measured 24 hours after the addition of the proteins to the cell culture using a commercially available ELISA kit for TNF-α (R&D Systems, Minneapolis, Minn.).

Fc receptor = Fc receptor activation, TNF-α secretion from THP-1 cells; type: cell-based; conditions: well precoated with 10 ug/well heat aggregated protein; 24 hours
Source text: Fc stimulation results in TNF-α secretion.

animal model of stroke = experiment: Mouse model of stroke (carotid artery ligation and reperfusion, infarct); type: in vivo; conditions: Table 2
Protocol: In this model, the middle carotid artery of a mouse was ligated for 1 hour followed by 23 hours of reperfusion at which point the mice were sacrificed and the area of the infarct in the brain was assessed. […] Mice were injected intraperitoneally, 1 hour after the initiation of ischemia. Mice were subjected to one hour of cerebral ischemia followed by 24 hours of reperfusion. To induce ischemia, each mouse was anesthetized and body temperature was maintained at 36-37° C. by external warming. The left common carotid artery (CCA) was exposed through a midline incision in the neck. A microsurgical clip was placed around the origin of the internal carotid artery (ICA). […] After the nylon suture had been in place for 1 hour, the animal was re-anesthetized, rectal temperature was recorded and the suture was removed and the incision closed. Infarct volume was determined by anesthetizing the animals with an intraperitoneal injection of sodium pentobarbital (50 mg/kg) and then removing the brains. […] The infarct area in each section was determined with a computer-assisted image analysis system, consisting of a Power Macintosh computer equipped with a Quick Capture frame grabber card, Hitachi CCD camera mounted on a camera stand. […] The images were captured and the total area of infarct was determined over the sections. […] Summing the infarct volumes of the sections calculated the total infarct volume. […]

B1: TTP-4000: four domain RAGE fusion protein, SEQ ID NO: 32: human RAGE amino acids 1-251 linked to CH2 and CH3 domains of human IgG (protein, listed as Homo sapiens)
chain: MAAGTAVGAWALVLSLWGAVVGAQNITARIGEPLVLKCKGAPKKPPQRLEWKLNTGRTEAWKVLSPQGGGPWDSVARVLPNGSLFLPAVGIQDEGIFRCQAMNRNGKETKSNYRVRVYQIPGKPEIVDSASELTAGVPNKVGTCVSEGSYPAGTLSWHLDGKPLVPNEKGVSVKEQTRRHPETGLFTLQSELMVTPARGGDPRPTFSCSFSPGLPRHRALRTAPIQPRVWEPVPLEEVQLVVEPEGGAVAPPSVFLFPPKPKDTLMISRTPEVTCVVVDVSHEDPEVKFNWYVDGVEVHNAKTKPREEQYNSTYRVVSVLTVLHQDWLNGKEYKCKVSNKALPAPIEKTISKAKGQPREPQVYTLPPSRDELTKNQVSLTCLVKGFYPSDIAVEWESNGQPENNYKTTPPVLDSDGSFFLYSKLTVDKSRWQQGNVFSCSVMHEALHNHYTQKSLSLSPGK
- binding of fusion protein to immobilized amyloid-beta inhibited by the RAGE ligand (amyloid-beta; fusion protein initial solution diluted 1:10): completely inhibited
- binding of fusion protein to immobilized amyloid-beta inhibited by the RAGE ligand (amyloid-beta; fusion protein initial solution diluted 1:30): completely inhibited
- effect on S100b induction of TNF-α, in words [1]: at least as effective in blocking S100b induction of TNF-α as is sRAGE
- TNF secreted by THP-1 cells (Fc receptor): less than 2 ng/well
- limiting the area of infarct, compared with sRAGE (animal model of stroke): more efficacious than sRAGE

— patent US20090060925A1, “Rage Fusion Proteins and Methods of Use” (THE TRUSTEES OF COLUMBIA UNIVERSITY IN THE CITY OF, priority 2004, published 2009)
